From the supplement of paper PMC7125110
± gives the standard error. For some assays here: Variants at the floor of the assay were thinned out.

B1: glmS ribozyme (parent)
chain: AUAAAAGCGCCAGAACUACAGAAAUGUAGUUGACGAGGAGGAGGUUUAUCGAAUUUUCGGCGGAUGCCUCCAAA

Columns and labels:
Settings in all cases: with glucosamine-6-phosphate
glucosamine-6-phosphate [1] = variants of: B1; assay: kcat; higher = faster cleavage; RNA array
Method in brief: (§1)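 Glucosamine-6-phosphate, from 40 μM to 10 mM in HEPES/KCl/Mg(OAc)2 buffer, was flowed over sequenced MiSeq chips carrying barcoded ribozyme variants transcribed in situ by E. coli RNA polymerase. A hybridised Cy3 probe tracked the variants at 37 °C as tiles were imaged over ~14 h. kobs, kcat and KM were obtained by fitting normalised per-tile medians to exponential decays and then applying weighted Michaelis–Menten fits across concentrations.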

glucosamine-6-phosphate [2] = variants of: B1; assay: self-cleavage kobs at 2500 uM GlcN6P; higher = faster cleavage; RNA array
Method in brief: as §1

glucosamine-6-phosphate [3] = variants of: B1; assay: self-cleavage kobs at 10000 uM GlcN6P; higher = faster cleavage; RNA array
Method in brief: as §1

glucosamine-6-phosphate [4] = variants of: B1; assay: KM; higher = weaker cofactor use; RNA array
Method in brief: as §1

glucosamine-6-phosphate [5] = variants of: B1; assay: self-cleavage kobs at 160 uM GlcN6P; higher = faster cleavage; RNA array
Method in brief: as §1

glucosamine-6-phosphate [6] = variants of: B1; assay: self-cleavage kobs at 640 uM GlcN6P; higher = faster cleavage; RNA array
Method in brief: as §1

glucosamine-6-phosphate [7] = variants of: B1; assay: self-cleavage kobs at 40 uM GlcN6P; higher = faster cleavage; RNA array
Method in brief: as §1

Variant | kcat (glucosamine-6-phosphate [1]) [s⁻¹] | self-cleavage kobs at 2500 uM GlcN6P (glucosamine-6-phosphate [2]) [s⁻¹] | self-cleavage kobs at 10000 uM GlcN6P (glucosamine-6-phosphate [3]) [s⁻¹] | KM (glucosamine-6-phosphate [4]) [µM] | self-cleavage kobs at 160 uM GlcN6P (glucosamine-6-phosphate [5]) [s⁻¹] | self-cleavage kobs at 640 uM GlcN6P (glucosamine-6-phosphate [6]) [s⁻¹] | self-cleavage kobs at 40 uM GlcN6P (glucosamine-6-phosphate [7]) [s⁻¹]
C58U A64G | 0.00011 ± 1.9e-05 | 5.74e-05 ± 1.1e-05 | 8.51e-05 ± 1.1e-05 | – | – | – | –
U65A C71G | 0.000477 ± 0.00013 | 0.000382 ± 9.3e-05 | 0.000383 ± 8.9e-05 | 1710 ± 720 | 4.31e-05 ± 1.1e-05 | 0.000124 ± 1.6e-05 | –
A64U G66U | < 1e-05 | – | – | – | – | – | < 1e-05
U65G U69G | 6.55e-05 ± 6.1e-06 | 6.29e-05 ± 1.2e-05 | 6.56e-05 ± 1.1e-05 | – | 4.06e-05 ± 1.8e-05 | 3.94e-05 ± 1.3e-05 | –
U65G U69A | 0.000187 ± 3.2e-05 | 0.000116 ± 2.2e-05 | 0.000174 ± 5.3e-05 | 1450 ± 480 | – | 5.5e-05 ± 1.2e-05 | –
C67U C68U | 0.000115 ± 7.3e-06 | 0.000124 ± 1.3e-05 | 0.000107 ± 7.4e-06 | 293 ± 85 | 3.97e-05 ± 8.6e-06 | 7.85e-05 ± 9.1e-06 | –
U57A C67G | 5.87e-05 ± 1.1e-05 | 3.77e-05 ± 1.1e-05 | 7.6e-05 ± 1.1e-05 | – | – | 5.39e-05 ± 1.5e-05 | –
A12U U55G | – | 0.00928 ± 0.0023 | 0.119 ± 0.048 | 104 ± 42 | 0.00618 ± 0.0009 | 0.0105 ± 0.0021 | 0.00298 ± 0.00031
U57A C58U | 6.53e-05 ± 2.8e-06 | – | 2.39e-05 ± 8.3e-06 | – | – | – | –
G66A C68G | 6.98e-05 ± 9.4e-06 | 4.73e-05 ± 1e-05 | 7.85e-05 ± 7.5e-06 | – | 3.51e-05 ± 1.2e-05 | 5.08e-05 ± 7.5e-06 | –
U65A C70G | 7.88e-05 ± 4.1e-06 | 7.95e-05 ± 1e-05 | 7.32e-05 ± 7.6e-06 | 66.3 ± 25 | 5.95e-05 ± 1.2e-05 | 7.89e-05 ± 1e-05 | –
G13A C61G | – | – | – | 127 ± 17 | – | – | –
U69A C70G | 1.72e-05 ± 8e-06 | – | – | – | – | – | –
G63U C67A | < 1e-05 | – | < 1e-05 | – | < 1e-05 | – | –
G63U C67U | < 1e-05 | – | – | – | – | < 1e-05 | < 1e-05
C67G U69G | < 1e-05 | – | < 1e-05 | – | < 1e-05 | – | –
C67G U69C | 0.00123 ± 0.00012 | 0.00077 ± 0.00014 | 0.00127 ± 0.0002 | 958 ± 170 | 0.000179 ± 3.4e-05 | 0.000506 ± 9.2e-05 | 5.09e-05 ± 1.4e-05
A64G U69A | 8.09e-05 ± 8.7e-06 | 4.75e-05 ± 1.6e-05 | 7.42e-05 ± 1.3e-05 | 1230 ± 510 | – | 3.36e-05 ± 1.6e-05 | < 1e-05

Variant | kcat (glucosamine-6-phosphate [1]) [s⁻¹] | self-cleavage kobs at 2500 uM GlcN6P (glucosamine-6-phosphate [2]) [s⁻¹] | self-cleavage kobs at 10000 uM GlcN6P (glucosamine-6-phosphate [3]) [s⁻¹] | KM (glucosamine-6-phosphate [4]) [µM] | self-cleavage kobs at 160 uM GlcN6P (glucosamine-6-phosphate [5]) [s⁻¹] | self-cleavage kobs at 640 uM GlcN6P (glucosamine-6-phosphate [6]) [s⁻¹] | self-cleavage kobs at 40 uM GlcN6P (glucosamine-6-phosphate [7]) [s⁻¹]
G59A C68U | 1.6e-05 ± 1.4e-06 | – | – | – | – | – | –
G59A C68G | 1.72e-05 ± 2.3e-06 | – | – | – | – | – | –
G59A C68A | < 1e-05 | – | – | – | – | – | < 1e-05
C58U C70A | 2.29e-05 ± 6.9e-06 | – | – | – | – | 3.84e-05 ± 1.4e-05 | –
C61U C70U | 3.98e-05 ± 5.3e-06 | 3.31e-05 ± 1e-05 | 3.47e-05 ± 6e-06 | – | – | – | –
C58U U69G | 4.53e-05 ± 1.7e-05 | 7.55e-05 ± 1.9e-05 | – | – | 5.15e-05 ± 1.5e-05 | 6.7e-05 ± 1.6e-05 | 2.63e-05 ± 1.1e-05
C67G C71U | 2.93e-05 ± 3.2e-06 | 3.07e-05 ± 8.1e-06 | 2.63e-05 ± 6.7e-06 | – | – | – | –
C67G C70A | < 1e-05 | – | < 1e-05 | – | – | < 1e-05 | < 1e-05
U65A G66A C67G C71U | 8.39e-05 ± 1.9e-05 | 8.49e-05 ± 2.1e-05 | 6.69e-05 ± 1.9e-05 | – | – | – | –
A64G C67A | 0.00338 ± 0.00073 | 0.0018 ± 0.00034 | 0.00346 ± 0.00059 | 1730 ± 520 | 0.000303 ± 4.4e-05 | 0.000794 ± 0.00012 | 9.53e-05 ± 1.7e-05
A64G U65G | 0.00619 ± 0.0017 | 0.00174 ± 0.00029 | 0.00489 ± 0.00066 | 4490 ± 1700 | 0.000262 ± 6e-05 | 0.000845 ± 0.00015 | 5.76e-05 ± 1e-05
U65G G66U | 0.00147 ± 0.00011 | 0.000789 ± 0.0001 | 0.00117 ± 0.00012 | 2310 ± 320 | 9.38e-05 ± 2.2e-05 | 0.000342 ± 5.3e-05 | 1.83e-05 ± 8e-06
C58U C61A | 6.3e-05 ± 2.6e-05 | 7.93e-05 ± 1.5e-05 | – | – | 6.42e-05 ± 1.7e-05 | 0.000108 ± 3.4e-05 | –
C61U U69G | 1.8e-05 ± 3.9e-06 | – | – | – | – | – | –
C61U U69A | 4.43e-05 ± 1.5e-05 | 6.76e-05 ± 1.9e-05 | – | – | 3.86e-05 ± 1.8e-05 | 4.2e-05 ± 1.3e-05 | –
C70G C71U | 0.000112 ± 1.4e-05 | 0.000102 ± 8.1e-06 | 0.00011 ± 8.6e-06 | 401 ± 170 | 5.07e-05 ± 7.8e-06 | 6.12e-05 ± 4.8e-06 | –
G63C U69A | 1.18e-05 ± 4.3e-06 | – | – | – | – | – | –
C58A C67A | 0.000182 ± 3.1e-05 | 0.000146 ± 4e-05 | 0.000144 ± 2e-05 | 2300 ± 1000 | – | 3.37e-05 ± 1.2e-05 | –
